In patent US20200223933A1 (APTEVO RESERCH AND DEVELOPMENT, published 2020):

What was measured:
[1] = biological target: some of the FcγR expressing cell lines; experiment: flow cytometry on CHO cells stably expressing FcγR, anti-human IgG secondary (FIG. 30B)
human CD137 on cells [2] = biological target: T1, human CD137 on cells (human, UniProt Q07011 24-255); experiment: cell-based or functional assay
human CD137 on cells [3] = biological target: T1, human CD137 on cells; experiment: cell-based or functional assay; remark: listed apart in the source
human CD137 on cells [4] = biological target: T1, human CD137 on cells; experiment: flow cytometry, normalized % positive cells of CD8 T cells from CD3-stimulated human PBMC, pooled data of 2 exp, n=6 donors
Experimental: (§1) FACS staining and analysis of CD8 T cells: Following 48 h of incubation with or without CD3, human and cynomolgus PBMC were harvested, pooled, recounted and diluted in FACS buffer (PBS +0.5% BSA, 0.05% NaN₃) to a concentration of 5×10⁶ cells/mL. 50 μL (0.25×10⁶ cells) of cell solution was added to a 96-well FACS staining plate (Falcon #351190). Following 10 min of Fc-blocking in RT using Beriglobin (hIgG, 200 μg/mL), cells were washed in FACS buffer and then incubated for 1 h in 4° C. with 100 μL of the biotinylated ALG.APV-210 or negative control. The antibodies were added in a serial dilution starting either at 5 μg/mL titrating down in a 12 step 1/3 dilution down to 0.0003 μg/mL (exp 1) or 1 μg/mL titrating down in a 12 step 1/2 dilution down to 0.0005 μg/mL (exp 2). […] Cells were analysed for ALG.APV-210 binding using flow cytometry by gating on viable, single cells expressing CD3 and CD8. MFI values (FMO subtracted) from 2 independent experiments as well as normalized pooled data from 2 experiments and EC₅₀-values were determined and plotted using GraphPad Prism 7, non-linear regression log (agonist) vs. normalized response—variable slope, n=6 donors/group.

human CD137 on cells [5] = biological target: T1, human CD137 on cells; experiment: flow cytometry, CD8 T cells gated from CD3-stimulated human PBMC, exp 2, n=3 donors
Experimental: as §1

[6] = biological target: T2, cynomolgus CD137 on cells (cynomolgus macaque, UniProt A9YYE7 24-254); experiment: flow cytometry, % positive cells of CD8 T cells gated from CD3-stimulated cynomolgus PBMC, exp 1, n=3 donors
T2 construct: whole, on cells; also called cynomolgus macaque CD137; cynomolgus 4-1BB
T2 sequence (A9YYE7 entry or part of it): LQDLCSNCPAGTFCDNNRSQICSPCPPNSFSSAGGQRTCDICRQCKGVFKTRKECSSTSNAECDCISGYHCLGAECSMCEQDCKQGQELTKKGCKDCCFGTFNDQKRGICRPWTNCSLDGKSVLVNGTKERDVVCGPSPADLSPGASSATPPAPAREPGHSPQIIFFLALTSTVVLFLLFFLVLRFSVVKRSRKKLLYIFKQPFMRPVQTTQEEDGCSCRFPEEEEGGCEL
Experimental: (§2) Isolation and stimulation of cynomolgus PBMC: Cynomolgus PBMC were isolated from 20 mL of cynomolgus monkey blood from 3 different donors, obtained from Silabe, France by density gradient centrifugation using Lympholyte-mammal (Cedarlane labs) according to manufacturer's instructions. Non-tissue treated 96 well plates were pre-coated overnight at 4° C. with 3 μg/mL α-monkey CD3, clone FN-18 (Invitrogen #APS0301). The cynomolgus PBMC were then stimulated identically as the human PBMC described above
(§3) FACS staining and analysis of CD8 T cells: Following 48 h of incubation with or without CD3, human and cynomolgus PBMC were harvested, pooled, recounted and diluted in FACS buffer (PBS +0.5% BSA, 0.05% NaN₃) to a concentration of 5×10⁶ cells/mL. 50 μL (0.25×10⁶ cells) of cell solution was added to a 96-well FACS staining plate (Falcon #351190). […] Cells were analysed for ALG.APV-210 binding using flow cytometry by gating on viable, single cells expressing CD3 and CD8. MFI values (FMO subtracted) from 2 independent experiments as well as normalized pooled data from 2 experiments and EC₅₀-values were determined and plotted using GraphPad Prism 7, non-linear regression log (agonist) vs. normalized response—variable slope, n=6 donors/group.

[7] = biological target: T2, cynomolgus CD137 on cells; experiment: flow cytometry, CD8 T cells gated from CD3-stimulated cynomolgus PBMC, exp 2, n=3 donors
Experimental: as §2, §3

human CD137 on cells [8] = biological target: T1, human CD137 on cells; experiment: flow cytometry, CD8 T cells gated from CD3-stimulated human PBMC, exp 1, n=3 donors
Experimental: as §1

human CD137 on cells [9] = biological target: T1, human CD137 on cells; experiment: flow cytometry, % positive cells of CD8 T cells gated from CD3-stimulated human PBMC, exp 1, n=3 donors
Experimental: as §1

[10] = biological target: T2, cynomolgus CD137 on cells; experiment: flow cytometry, CD8 T cells gated from CD3-stimulated cynomolgus PBMC, exp 1, n=3 donors
Experimental: as §2, §3

T1 sequence (Q07011 24-255 limits assumed): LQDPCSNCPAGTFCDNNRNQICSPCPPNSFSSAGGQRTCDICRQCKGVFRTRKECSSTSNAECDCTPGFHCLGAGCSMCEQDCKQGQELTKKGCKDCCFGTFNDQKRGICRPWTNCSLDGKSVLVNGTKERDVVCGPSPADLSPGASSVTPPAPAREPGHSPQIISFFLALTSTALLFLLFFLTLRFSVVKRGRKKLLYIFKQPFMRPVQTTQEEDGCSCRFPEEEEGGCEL

control human IgG1 molecule (antibody)
concentration at which significant binding was observed [1]: 4 nM

B1: ALG.APV-210 (bispecific antibody)
chain: EVQLLESGGGLVQPGGSLRLSCAASGFTFSHGSMYWVRQAPGKGLEWVSSISSGSGSTYYADSVKGRFTISHDNSKNTLYLQMNSLRAEDTAVYYCARSSYYGSYYSIDYWGQGTLVTVSSGGGGSGGGGSGGGGSGGGGSDIQMTQSPSSLSASVGDRVTITCRASQSISSYLNWYQQKPGKAPKLLIYAASSLQSGVPSRFSGSGSGTDFTLTISSLQPEDFATYYCQQYYDNLPTFGQGTKLEIKEPKSSDKTHTCPPCPAPEAAGAPSVFLFPPKPKDTLMISRTPEVTCVVVDVSHEDPEVKFNWYVDGVEVHNAKTKPREEQYNSTYRVVSVLTVLHQDWLNGKEYKCAVSNKALPAPIEKTISKAKGQPREPQVYTLPPSRDELTKNQVSLTCLVKGFYPSDIAVEWESNGQPENNYKTTPPVLDSDGSFFLYSKLTVDKSRWQQGNVFSCSVMHEALHNHYTQKSLSLSPGSGGGGSGGGGSGGGGSPSEVQLLESGGGLVQPGGSLRLSCAASGFTFSSYAMSWVRQAPGKCLEWVSAISGSGGSTYYADSVKGRFTISRDNSKNTLYLQMNSLRAEDTAVYYCARYYGGYYSAWMDYWGQGTLVTVSSGGGGSGGGGSGGGGSGGGGSDIQMTQSPSSLSASVGDRVTITCRASQSISSFLNWYQQKPGKAPKLLIYAASSLQSGVPSRFSGSGSGTDFTLTISSLQPEDSATYYCQQTYGYLHTFGCGTKLEIKR
EC50 (nM), IFNγ release of human CD8 T cells with CT26-h5T4^high cells (human CD137 on cells [2]): 0.41 nM | EC50 (nM), IFNγ release of human CD8 T cells with CT26-h5T4^low cells (human CD137 on cells [2]): 0.24 nM | maximal IFNγ release with CT26-h5T4^low cells relative to CT26-h5T4^high cells (human CD137 on cells [3]): 82% | maximal IFNγ release with CT26-wt cells relative to CT26-h5T4^high cells (human CD137 on cells [3]): 7%

B2: biotinylated ALG.APV-210 (bispecific antibody)
chain: B1 chain
modifications: biotinylated (sites not given)
notes: also called ALG.APV-210 (biotinylated for FACS detection)
EC50 (human CD137 on cells [4]): 0.027 nM | EC50 (read off the curve) (human CD137 on cells [5]): ~0.2 nM | EC50 (read off the curve) [6]: ~0.02 nM | EC50 (read off the curve) [7]: ~0.2 nM | EC50 (read off the curve) (human CD137 on cells [8]): ~0.3 nM | EC50 (read off the curve) (human CD137 on cells [9]): ~0.03 nM | EC50 (read off the curve) [10]: ~0.3 nM
